Laboratory results reported in paper PMC10552185, “Impaired cAMP processivity by phosphodiesterase-protein kinase A complexes in acrodysostosis” (Frontiers in Molecular Biosciences, 2023).

Molecular target: T1, cAMP-dependent protein kinase (PKA) type I regulatory subunit isoform α, full-length wild type (UniProt P00514 1-380)
T1 construct: PKA type I regulatory subunit α (RIα), full length, UniProtKB P00514 used for the HDXMS peptide search; Cloned in pRSETA; for FP loaded with 8-fl-cAMP or 2'-fl-cAMP; also called RIα; WT RIα
T1 sequence (P00514 whole entry, canonical isoform): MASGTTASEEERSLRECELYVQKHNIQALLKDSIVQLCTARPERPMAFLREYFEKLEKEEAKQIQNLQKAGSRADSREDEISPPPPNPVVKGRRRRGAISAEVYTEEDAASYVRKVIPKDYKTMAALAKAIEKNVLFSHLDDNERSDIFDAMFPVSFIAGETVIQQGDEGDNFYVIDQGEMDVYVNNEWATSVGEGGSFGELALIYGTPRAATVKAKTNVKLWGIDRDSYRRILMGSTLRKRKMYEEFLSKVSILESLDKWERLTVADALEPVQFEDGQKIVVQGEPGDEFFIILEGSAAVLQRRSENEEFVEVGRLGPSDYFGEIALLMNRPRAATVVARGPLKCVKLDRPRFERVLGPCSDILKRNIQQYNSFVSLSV
Test: fluorescence polarisation; about 1 uM RIα preloaded with 8-fl-cAMP or 2'-fl-cAMP (excess ligand removed by SEC), about 2 uM PDE8 added; polarisation followed over 120 min; 96-well plates; excess cAMP (25 or 100 uM) added at 20 min in some runs
Conditions: both partners purified

| binding result | Binder |
| --- | --- |
| binds | catalytic domain of wild-type PDE8A1 (472-829) (domain or fragment, UniProt O60658-1 472-829, looked up, PDE8A catalytic domain, residues 472-829 of PDE8A1, UniProtKB O60658 used for the HDXMS peptide search; Cloned in pET-Duet1; also called PDE8 WT; WT PDE8) SSNIITPISLDDVPPRIARAMENEEYWDFDIFELEAATHNRPLIYLGLKMFARFGICEFLHCSESTLRSWLQIIEANYHSSNPYHNSTHSADVLHATAYFLSKERIKETLDPIDEVAALIAATIHDVDHPGRTNSFLCNAGSELAILYNDTAVLESHHAALAFQLTTGDDKCNIFKNMERNDYRTLRQGIIDMVLATEMTKHFEHVNKFVNSINKPLATLEENGETDKNQEVINTMLRTPENRTLIKRMLIKCADVSNPCRPLQYCIEWAARISEEYFSQTDEEKQQGLPVVMPVFDRNTCSIPKSQISFIDYFITDMFDAWDAFVDLPDLMQHLDNNFKYWKGLDEMKLRNLRPPPE |
| binds | PDE8A catalytic domain (472-829) T690P (domain or fragment, UniProt O60658 472-829, looked up, PDE8A catalytic domain, residues 472-829 of PDE8A1, UniProtKB O60658, with T690P (made as the equivalent of the acrodysostosis mutation PDE4D T594P); Cloned in pET-Duet1; also called PDE8 T690P; PDE8c T690P) SSNIITPISLDDVPPRIARAMENEEYWDFDIFELEAATHNRPLIYLGLKMFARFGICEFLHCSESTLRSWLQIIEANYHSSNPYHNSTHSADVLHATAYFLSKERIKETLDPIDEVAALIAATIHDVDHPGRTNSFLCNAGSELAILYNDTAVLESHHAALAFQLTTGDDKCNIFKNMERNDYRTLRQGIIDMVLATEMTKHFEHVNKFVNSINKPLAPLEENGETDKNQEVINTMLRTPENRTLIKRMLIKCADVSNPCRPLQYCIEWAARISEEYFSQTDEEKQQGLPVVMPVFDRNTCSIPKSQISFIDYFITDMFDAWDAFVDLPDLMQHLDNNFKYWKGLDEMKLRNLRPPPE |
